US9012217B2, “Benzimidazole compounds differentiate a mammalian stem cell into mesodermal or cardiomyocyte cells” (Burnham Institute for Medical Research, priority 2008, dated 2015)

Tests used:
[1] = tested on: CGR8 mESCs stably transfected with eGFP under control of the alpha myosin heavy chain (aMHC) promoter; assay: cardiomyocyte screening assay (aMHC-eGFP mESC differentiation, imaging); format: cell-based, mouse; settings: structure IIA; activity relative to compound 28 = 100%
Experimental: The primary screen is conducted with CGR8 mESCs stably transfected with eGFP under control of the alpha myosin heavy chain (aMHC) promoter (Takahashi, et al., Circulation, 107(14):1912, 2003). The bioassay is run essentially as described (Bushway et al., Methods Enzymol, 414:300, 2006). Briefly, cells were seeded onto Greiner 384 well microclear bottom microtiter plates in ½ well volume at a density of ˜229 cells/mm2. […]
The optimal time to stop the differentiation is empirically determined to be at day 9 of differentiation, when cardiomyocytes appear in positive control cultures that have higher density cells or culture the cells in embryoid body (not monolayer) culture. […] Image quantification is done using a simple image subtraction routine that subtracted the red channel images from the green (eGFP) channel images to remove background signal from the eGFP images. […]
Follow-up confirmations and testing of hits for SAR were performed on the Hamilton STAR fluid handler with integrated Kendro Cytomat plate hotel and Kendro Cytomat plate incubators using the Hamilton STAR liquid handler robot. […] Image quantification is performed on captured TIFF images using the Developer Toolbox (GE/Amersham) with custom algorithms. […]

mESC = assay: serum-free mESC cardiac differentiation assay (day 2 to day 4 exposure); format: cell-based, mouse; settings: added alone, day 2 to day 4, serum free
Experimental: To define the point of action in more detail, a more focused assay is designed to probe the activities of the compounds between days 2-4 of differentiation. Of note is that the original assay is performed in the presence of serum, which activates many pathways that obscure the targets of the small molecules. Since serum activates many pathways and many genes, its presence confounds analysis of downstream targets. Thus, a serum-free mESC cardiac differentiation assay is set up to more precisely validate the activity of the compounds and determine if they acted independently or synergized with a known inducer. The refined assay, diagrammed in FIG. 4, tested the ability of the small molecules to stimulate mesodermal differentiation from day 2 to day 4. Differentiation is initiated by aggregating mESC into embryoid bodies (EBs) in serum free conditions. Day 2 EBs were dispersed in the presence of growth factors or small molecules to allow maximal exposure. Cells were allowed to re-aggregate into EBs until day 4 when they were dispersed and plated in conducive conditions for cardiac differentiation to day 9, at which point eGFP is imaged and quantified by the algorithm described above.
FIG. 5 summarizes experiments showing synergy with Activin/Nodal signaling.

COc1nnc(Nc2ccc3c(c2)ncn3C2CC2)c2ccccc12 [Compound 104]
Activity [1]: INACTIVE

B1: Activin A (protein, UniProt P08476 311-426, looked up)
Inhibin beta A chain: GLECDGKVNICCKKQFFVSFKDIGWNDWIIAPSGYHANYCEGECPSHIAGTSGSSLSFHSTVINHYRMRGHSPFANLKSCCVPTKLRPMSMLYYDDGQNIIKKDIQNMIVEECGCS
notes: "an inducer of anterior mesoderm and endoderm"
cardiogenesis (cardiomyocytes at day 9) (mESC): efficient cardiogenesis

B2: BMP4 (protein, UniProt P12644 293-408, looked up)
Bone morphogenetic protein 4: SPKHHSQRARKKNKNCRRHSLYVDFSDVGWNDWIVAPPGYQAFYCHGDCPFPLADHLNSTNHAIVQTLVNSVNSSIPKACCVPTELSAISMLYLDEYDKVVLKNYQEMVVEGCGCR
notes: "posteriorizing growth factors such as BMP4"
cardiogenesis (cardiomyocytes at day 9) (mESC): does not
